Article PMC8008353 (The Journal of Biological Chemistry, 2005)

Biological target: the molecule itself
Assay: AUC

Row | Protein | stoichiometry N
1 | NF4 (N protein fragment, residues 285-422) (domain or fragment) GNFGDQDLIRQGTDYKHWPQIAQFAPSASAFFGMSRIGMEVTPSGTWLTYHGAIKLDDKDPQFKDNVILLNKHIDAYKTFPPTEPKKDKKKKTDEAQPLPQRQKKQPTVTLLPAADMDDFSRQLQNSMSGASADSTQA | 2
2 | NF2 (N protein fragment, residues 211-422) (domain or fragment) MASGGGETALALLLLDRLNQLESKVSGKGQQQQGQTVTKKSAAEASKKPRQKRTATKQYNVTQAFGRRGPEQTQGNFGDQDLIRQGTDYKHWPQIAQFAPSASAFFGMSRIGMEVTPSGTWLTYHGAIKLDDKDPQFKDNVILLNKHIDAYKTFPPTEPKKDKKKKTDEAQPLPQRQKKQPTVTLLPAADMDDFSRQLQNSMSGASADSTQA | 2
